Results as given in the supplement of paper PMC10126150.
± gives the standard deviation of the averaged measurements.

System: ATP
Assay: switch fluorescence ratio, 500 uM ATP over buffer (Cy3 cluster intensity, sum of 5 cycles each) (fold (ratio)); higher = stronger signal-on switching upon ATP binding; sequences stand for … in TCGTCGGCAGCGTCAGATGTGTATAAGAGACAGTTTTTTTTTTTTTTTTTTTTTTTTT…TC
Conditions: aptamer strand: ATP DNA aptamer (quencher-CACCTGGGGGAGTATTGCGGAGGAAGG + anchor), 100 nM annealed; ATP concentration: 500 uM
Procedure, shortened: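 Clusters with intensities outside 100-1000 RFU were excluded. The remaining Cy3-labelled switching-strand clusters on a modified Illumina MiSeq flow-cell had been annealed to 100 nM quencher-labelled ATP aptamer and imaged in selection buffer, then after 15 min with 500 uM ATP at 22 °C, for five cycles separated by NaOH stripping and re-annealing. The fluorescence ratio, averaged per switch-domain sequence, is each cluster's summed target-cycle Cy3 intensity over its summed buffer-cycle Cy3 intensity.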
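Further: ATP exposure 15 min at 22 °C before imaging.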

Sequence	switch fluorescence ratio
TTTATATACG	0.991 ± 0.017
AGGGGGTTGC	1.01 ± 0.026
AGGGGAGGAA	0.994 ± 0.013
GATAGAGGGG	0.984 ± 0.028
TGGGTATTAC	1.14 ± 0.26
CGGCGGCAGG	0.9881 ± 0.0068
CGATTTGGCA	1.01 ± 0.0076
TTGAAGCGTT	0.996 ± 0.018
AAAGTCACAC	1.04 ± 0.022
TTAAATAATC	1 ± 0.035
CCTTATTAGT	0.984 ± 0.012
AGGGGAAGCT	1.03 ± 0.081
CGGCGTTGCT	0.981 ± 0.045
ATATTGTGTG	1.01 ± 0.048
AAAATGATAT	0.99 ± 0.02
TATAGGTTTG	1.01 ± 0.042
TGCTGTGGGG	1 ± 0.029
GGGTATGTTT	0.981 ± 0.03
GGGCCAAGGG	1.01 ± 0.022
TCAGGGGCGT	1.0041 ± 0.00072
TTTTCTGTGG	0.994 ± 0.035
CTACGGCATA	3.11 ± 0.11
TTCTAAATGT	0.9995 ± 0.0021

Sequence	switch fluorescence ratio
ATAGATAGGT	0.99 ± 0.034
ACAAGTAATA	1.06 ± 0.057
CAAAGAAAGA	0.991 ± 0.032
GCTATATCTA	1.02 ± 0.022
GCATAAGGGG	0.992 ± 0.018
AAAAATGCCG	0.99 ± 0.019
CTGTCAGATG	1 ± 0.025
CAAATTTGGC	0.986 ± 0.027
AAGGGCGGGG	1.01 ± 0.019
GATTTAAAGC	0.984 ± 0.034
TTGTTACATG	1.012 ± 0.0051
GGTACGGTTT	1.04 ± 0.02
TCTTTTGGTT	1.011 ± 0.0051
TGGCGGGGGT	0.981 ± 0.012
GGGGGACGAC	0.969 ± 0.035
ATAGGAAATA	1.06 ± 0.035
GGTGCCAAGG	0.959 ± 0.02
TAGTGCGATT	1.02 ± 0.015
CGTTTGTTAT	1.05 ± 0.04
TCCTTGACGA	1.06 ± 0.013
GGTTAATTAA	1.03 ± 0.019
TCTCTGGCAG	1.17 ± 0.17
TTCAGTAAGA	1 ± 0.04

Sequence	switch fluorescence ratio
ATTCTACTTA	1.01 ± 0.018
TCTTAGCATT	1.04 ± 0.077
TTTTGAAGCG	0.99 ± 0.024
AGGCGGCGAG	1 ± 0.024
CCGTTGTATT	1.12 ± 0.035
AACACCAGGT	1.38 ± 0.45
AAGTGAATTA	1.0037 ± 0.00073
CAATGCCGAG	0.9895 ± 0.0045
GAAATGGGAG	0.998 ± 0.045
TGGTCTTTTC	0.986 ± 0.02
GATCATTGTT	1.007 ± 0.0088
TTAAGAGGTG	1.09 ± 0.034
CGGTAGAGTA	0.98 ± 0.062
AAAGACGAT	1.01 ± 0.017
TATTAGTATG	0.991 ± 0.047
AGATTAGTTG	1.016 ± 0.0039
CACGGGGCTT	1.02 ± 0.021
TTTCCGAGGG	1.43 ± 0.63
ATGCGCAGAA	1.01 ± 0.034
CGTTGTGGGG	0.966 ± 0.023
ACGTTGGCGG	1 ± 0.013
GGCTTGCTTT	1.01 ± 0.021
ATTTAAGTTG	0.987 ± 0.015

Sequence	switch fluorescence ratio
AAAGGTGCAA	1.21 ± 0.2
ACGATTTTTT	0.993 ± 0.013
GATGTATAAA	1.0015 ± 0.00099
TTTGCAGCAT	1.13 ± 0.22
AATATGTGTT	1.02 ± 0.031
GCGAAAAGAT	0.982 ± 0.018
GGGAGTGGGA	1.01 ± 0.011
CTTTGTCGAG	1 ± 0.019
ACGGTGGAGA	1.05 ± 0.015
GCGAACCCAA	1.18 ± 0.048
TGTGAAGAAA	0.977 ± 0.06
AGGGACATAT	1.018 ± 0.006
ACTTGTAATG	0.989 ± 0.049
GGTTAGTGGG	0.998 ± 0.017
CGATTGTTGA	1.01 ± 0.037
ATTTTTGAAT	1.01 ± 0.029
CGGCGGTCGG	0.9808 ± 0.0076
TGATACACGT	1 ± 0.013
TGGTCTAGGA	1.01 ± 0.011
GGTGTGGTGG	1.01 ± 0.027
TATTTCTGCT	1.04 ± 0.033
AAGTGATTGT	0.994 ± 0.028
TCGTTTATTA	1 ± 0.089

Sequence	switch fluorescence ratio
CATAATATTG	0.991 ± 0.011
ATTGATTTGC	0.997 ± 0.058
CGTTGGCGGT	1.02 ± 0.043
TTTCCAAATG	0.9847 ± 0.0059
AATTGTGGGG	0.983 ± 0.057
CATGTGTTTT	0.9744 ± 0.0041
CGTGAGGGGC	1.028 ± 0.01
CAGGGGCTTC	1.02 ± 0.018
ATTTTTTTTA	0.974 ± 0.024
ATGTGTTCTG	0.931 ± 0.031
TCTAAATGGG	1.029 ± 0.005
GAAGGGACGA	0.993 ± 0.04
TTTATGAGAT	1 ± 0.027
TCGGGGCAGC	0.998 ± 0.042
GGGGCGTTGG	0.993 ± 0.033
GTTAGTGTTT	1.01 ± 0.013
TTAGGGACAA	1.039 ± 0.0064
TGGTTTCCCG	0.975 ± 0.044
TGAGTCTTCG	1.03 ± 0.017
TGCTTACAAA	1.01 ± 0.027
AATCGAGGGA	1 ± 0.027
AGTTAAGATA	0.9907 ± 0.0031
GCTTTGGATG	0.968 ± 0.05

Sequence	switch fluorescence ratio
ACGCATGGGT	1.04 ± 0.028
CGGGGGGCAC	0.999 ± 0.021
GGGATGAGGG	0.97 ± 0.037
TATTTATAAG	0.96 ± 0.015
TGTATTTTGG	0.984 ± 0.029
TTCTTGTGTT	0.993 ± 0.042
TACTCGAAAC	1.8 ± 0.97
CTTTACCTAC	1.327 ± 0.0078
TCAGTTAAGG	0.9866 ± 0.0039
GTCAAACGGA	0.986 ± 0.018
CGGGGGTGGT	1.01 ± 0.033
AAGGCCGGCG	1.01 ± 0.017
AGCATCACTT	1.04 ± 0.029
GGAGTTTCGT	0.988 ± 0.023
GTTGGGATTC	0.986 ± 0.049
AGAGTGTGGC	1.07 ± 0.039
GAGGGCTGGG	0.978 ± 0.079
TTTATTTAGG	1.04 ± 0.011
GGATTGTCAG	0.9847 ± 0.0024
ATCTGGTTTG	0.955 ± 0.023
GGGTTCTAGG	0.999 ± 0.043
ATCAAATAGT	1.01 ± 0.037
AAAGCTTCAT	1.46 ± 0.088

Sequence	switch fluorescence ratio
TTGGGTCATG	1.036 ± 0.0048
TTGTTAAATC	1.02 ± 0.038
ATCAAGTGGT	0.9701 ± 0.006
TAATCTTAGA	0.99489 ± 5.2e-05
TGTTTCTGGG	0.999 ± 0.05
TTTGATGTTA	0.981 ± 0.034
TTCGAGGGTA	0.974 ± 0.036
CTGATAAAGG	0.969 ± 0.048
GATTATCTGG	0.984 ± 0.025
TTTTTAAAG	1.022 ± 0.0083
AGTAAAATAG	0.968 ± 0.017
TGGGTAAACG	1.023 ± 0.0035
TAATTCTTTT	0.986 ± 0.029
AGGGCTAAAT	0.995 ± 0.025
AGTCCTTGGA	0.99 ± 0.069
GAGGTGAGGC	1.03 ± 0.019
TGAACTAATT	1.01 ± 0.0099
TCTTATGGCC	0.975 ± 0.018
GGTTTTCATT	0.951 ± 0.053
